From paper PMC9482650, “Quantitative fragmentomics allow affinity mapping of interactomes” (Nature Communications, 2022)

T1: PDZD7_3, Q9H5P4
T1 sequence (Q9H5P4 857-944, limits assumed, looked up): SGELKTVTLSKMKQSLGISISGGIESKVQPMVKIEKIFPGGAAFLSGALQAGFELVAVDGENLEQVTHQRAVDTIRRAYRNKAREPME

T2: LNX2_2, Q8N448
T2 sequence (Q8N448 334-432, limits assumed, looked up): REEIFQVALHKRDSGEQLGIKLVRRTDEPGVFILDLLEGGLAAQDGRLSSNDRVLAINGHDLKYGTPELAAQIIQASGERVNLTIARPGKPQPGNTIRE

T3: DFNB31_2, Q9P202
T3 sequence (Q9P202 274-371, limits assumed, looked up): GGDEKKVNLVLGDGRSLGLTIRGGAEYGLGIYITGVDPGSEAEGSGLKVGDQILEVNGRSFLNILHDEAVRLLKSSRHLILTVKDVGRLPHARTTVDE

T4: TJP3_3, O95049
T4 sequence (O95049 375-456, limits assumed, looked up): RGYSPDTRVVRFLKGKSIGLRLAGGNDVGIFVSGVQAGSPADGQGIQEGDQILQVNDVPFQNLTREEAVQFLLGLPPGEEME

T5: CARD11, Q9BXL7
T5 sequence (Q9BXL7 662-765, limits assumed, looked up): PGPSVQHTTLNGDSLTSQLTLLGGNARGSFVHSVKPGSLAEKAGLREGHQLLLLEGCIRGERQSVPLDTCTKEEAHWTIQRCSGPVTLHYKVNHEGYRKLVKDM

T6: MPP2, Q14168
T6 sequence (Q14168 180-250, limits assumed, looked up): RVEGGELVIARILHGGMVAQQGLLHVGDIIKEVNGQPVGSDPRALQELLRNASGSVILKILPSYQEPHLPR

T7: DLG3_2, Q92796
T7 sequence (Q92796 221-321, limits assumed, looked up): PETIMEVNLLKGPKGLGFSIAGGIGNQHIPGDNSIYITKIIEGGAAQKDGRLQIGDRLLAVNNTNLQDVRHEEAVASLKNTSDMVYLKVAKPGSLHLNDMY

T8: SHANK1, Q9Y566
T8 sequence (Q9Y566 658-767, limits assumed, looked up): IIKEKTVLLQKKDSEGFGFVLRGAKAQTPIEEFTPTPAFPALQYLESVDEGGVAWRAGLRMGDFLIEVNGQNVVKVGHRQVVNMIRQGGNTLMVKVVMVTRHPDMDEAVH

T9: DLG3_3, Q92796
T9 sequence (Q92796 374-475, limits assumed, looked up): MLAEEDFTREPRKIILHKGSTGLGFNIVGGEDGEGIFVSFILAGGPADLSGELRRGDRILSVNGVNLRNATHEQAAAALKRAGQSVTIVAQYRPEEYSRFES

T10: MPDZ_12, O75970
T10 sequence (O75970 1857-1958, limits assumed, looked up): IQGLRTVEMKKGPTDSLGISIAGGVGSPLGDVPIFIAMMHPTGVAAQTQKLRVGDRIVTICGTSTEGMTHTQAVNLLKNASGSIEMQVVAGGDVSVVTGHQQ

T11: APBA2_2, Q99767
T11 sequence (Q99767 654-744, limits assumed, looked up): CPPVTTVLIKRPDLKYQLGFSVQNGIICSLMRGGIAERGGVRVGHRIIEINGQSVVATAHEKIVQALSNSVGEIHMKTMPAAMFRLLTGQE


How the values were obtained:
Experiment in all cases: holdup assay
Design in all cases: key: below the threshold = too weak to quantify, mostly under pKd 3.1 to 4
Settings in all cases: plain residues with an end cap or a label only (N-terminal biotin on a linker: ado-ado)
Inadl_8, Q8NI35 = biological target: Inadl_8, Q8NI35
Inadl_8, Q8NI35, sequence (Q8NI35 1425-1530): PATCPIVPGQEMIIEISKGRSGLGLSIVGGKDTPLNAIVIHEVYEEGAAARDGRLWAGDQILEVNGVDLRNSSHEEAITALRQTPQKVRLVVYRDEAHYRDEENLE

GRIP2_6, Q9C0E4 = biological target: GRIP2_6, Q9C0E4
GRIP2_6, Q9C0E4, sequence (Q9C0E4 648-740): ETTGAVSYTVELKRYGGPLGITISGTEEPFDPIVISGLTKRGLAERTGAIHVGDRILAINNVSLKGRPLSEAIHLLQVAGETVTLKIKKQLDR

LDB3, O75112 = biological target: LDB3, O75112
LDB3, O75112, sequence (O75112 1-94): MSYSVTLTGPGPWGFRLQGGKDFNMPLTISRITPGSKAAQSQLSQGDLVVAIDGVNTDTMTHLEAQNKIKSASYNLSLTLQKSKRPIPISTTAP

PDZD7_3, Q9H5P4 = biological target: T1, PDZD7_3, Q9H5P4
TJP1_3, Q07157 = biological target: TJP1_3, Q07157
TJP1_3, Q07157, sequence (Q07157 416-512): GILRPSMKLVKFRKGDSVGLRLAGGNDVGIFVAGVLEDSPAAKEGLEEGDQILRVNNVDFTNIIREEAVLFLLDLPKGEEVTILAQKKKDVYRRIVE

LNX2_2, Q8N448 = biological target: T2, LNX2_2, Q8N448
GRIP2_5, Q9C0E4 = biological target: GRIP2_5, Q9C0E4
GRIP2_5, Q9C0E4, sequence (Q9C0E4 544-642): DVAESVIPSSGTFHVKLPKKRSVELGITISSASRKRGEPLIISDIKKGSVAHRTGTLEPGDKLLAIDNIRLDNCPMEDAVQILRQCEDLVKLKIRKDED

DFNB31_2, Q9P202 = biological target: T3, DFNB31_2, Q9P202
MAGI3_2, Q5TCQ9 = biological target: MAGI3_2, Q5TCQ9
MAGI3_2, Q5TCQ9, sequence (Q5TCQ9 398-503): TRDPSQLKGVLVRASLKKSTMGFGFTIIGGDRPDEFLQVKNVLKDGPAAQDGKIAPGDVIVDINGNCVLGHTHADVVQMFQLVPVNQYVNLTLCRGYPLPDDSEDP

IL16_3, Q14005 = biological target: IL16_3, Q14005
IL16_3, Q14005, sequence (Q14005 1107-1207): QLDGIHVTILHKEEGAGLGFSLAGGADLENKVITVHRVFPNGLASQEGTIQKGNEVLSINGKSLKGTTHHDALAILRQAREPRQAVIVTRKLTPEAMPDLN

TJP3_3, O95049 = biological target: T4, TJP3_3, O95049
CARD11, Q9BXL7 = biological target: T5, CARD11, Q9BXL7
LIMK2, P53671 = biological target: LIMK2, P53671
LIMK2, P53671, sequence (P53671 143-248): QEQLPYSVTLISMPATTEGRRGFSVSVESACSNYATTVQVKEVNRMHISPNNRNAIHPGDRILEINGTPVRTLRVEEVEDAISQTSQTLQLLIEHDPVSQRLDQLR

PTPN3, P26045 = biological target: PTPN3, P26045
PTPN3, P26045, sequence (P26045 505-587): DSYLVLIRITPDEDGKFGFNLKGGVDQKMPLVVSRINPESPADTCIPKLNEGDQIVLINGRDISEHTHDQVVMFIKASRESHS

MPP2, Q14168 = biological target: T6, MPP2, Q14168
DLG3_2, Q92796 = biological target: T7, DLG3_2, Q92796
MAGI2_4, Q86UL8 = biological target: MAGI2_4, Q86UL8
MAGI2_4, Q86UL8, sequence (Q86UL8 772-865): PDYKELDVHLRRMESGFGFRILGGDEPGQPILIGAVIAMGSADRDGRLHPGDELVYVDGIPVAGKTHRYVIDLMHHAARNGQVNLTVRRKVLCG

FRMPD2_3, Q68DX3 = biological target: FRMPD2_3, Q68DX3
FRMPD2_3, Q68DX3, sequence (Q68DX3 1073-1166): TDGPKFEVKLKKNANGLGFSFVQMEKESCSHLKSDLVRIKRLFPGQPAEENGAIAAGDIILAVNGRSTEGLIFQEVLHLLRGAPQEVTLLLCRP

SHANK1, Q9Y566 = biological target: T8, SHANK1, Q9Y566
DLG4_1, P78352 = biological target: DLG4_1, P78352
DLG4_1, P78352, sequence (P78352 62-152): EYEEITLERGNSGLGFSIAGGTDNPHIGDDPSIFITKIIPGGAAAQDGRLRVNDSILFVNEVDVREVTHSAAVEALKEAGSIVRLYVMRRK

DLG3_3, Q92796 = biological target: T9, DLG3_3, Q92796
Inadl_1, Q8NI35 = biological target: Inadl_1, Q8NI35
Inadl_1, Q8NI35, sequence (Q8NI35 113-229): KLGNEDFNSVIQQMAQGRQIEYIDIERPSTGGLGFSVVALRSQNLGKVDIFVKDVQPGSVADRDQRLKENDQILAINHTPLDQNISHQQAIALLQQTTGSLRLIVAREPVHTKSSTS

MPDZ_12, O75970 = biological target: T10, MPDZ_12, O75970
GRIP2_3, Q9C0E4 = biological target: GRIP2_3, Q9C0E4
GRIP2_3, Q9C0E4, sequence (Q9C0E4 238-339): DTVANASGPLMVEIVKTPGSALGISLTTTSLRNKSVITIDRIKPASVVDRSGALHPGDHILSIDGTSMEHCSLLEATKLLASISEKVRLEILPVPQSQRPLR

APBA2_2, Q99767 = biological target: T11, APBA2_2, Q99767
CASK, O14936 = biological target: CASK, O14936
CASK, O14936, sequence (O14936 487-570): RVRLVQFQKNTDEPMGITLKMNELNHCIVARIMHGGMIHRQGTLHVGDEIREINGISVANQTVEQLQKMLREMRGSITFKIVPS

MAGI2_6, Q86UL8 = biological target: MAGI2_6, Q86UL8
MAGI2_6, Q86UL8, sequence (Q86UL8 1141-1229): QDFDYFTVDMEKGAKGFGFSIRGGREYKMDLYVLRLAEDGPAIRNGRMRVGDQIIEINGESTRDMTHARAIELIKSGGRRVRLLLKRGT

GRIP2_4, Q9C0E4 = biological target: GRIP2_4, Q9C0E4
GRIP2_4, Q9C0E4, sequence (Q9C0E4 446-548): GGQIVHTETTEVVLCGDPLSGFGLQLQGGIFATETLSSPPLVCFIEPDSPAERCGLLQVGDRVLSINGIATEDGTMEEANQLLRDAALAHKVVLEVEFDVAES

Binder	pKd (Inadl_8, Q8NI35)	pKd (GRIP2_6, Q9C0E4)	pKd (LDB3, O75112)	pKd (PDZD7_3, Q9H5P4)	pKd (TJP1_3, Q07157)	pKd (LNX2_2, Q8N448)	pKd (GRIP2_5, Q9C0E4)	pKd (DFNB31_2, Q9P202)	pKd (MAGI3_2, Q5TCQ9)	pKd (IL16_3, Q14005)	pKd (TJP3_3, O95049)	pKd (CARD11, Q9BXL7)	pKd (LIMK2, P53671)	pKd (PTPN3, P26045)	pKd (MPP2, Q14168)	pKd (DLG3_2, Q92796)	pKd (MAGI2_4, Q86UL8)	pKd (FRMPD2_3, Q68DX3)	pKd (SHANK1, Q9Y566)	pKd (DLG4_1, P78352)	also measured
RRRESYSTTV [EVI5, O60447]	4.06	4.61	below the threshold	4.61	below the threshold	5.2	below the threshold	below the threshold	5.18	below the threshold	below the threshold	below the threshold	below the threshold	4.31	below the threshold	5.44	4.63	below the threshold	4.36	5.79	pKd (DLG3_3, Q92796): 4.28; pKd (Inadl_1, Q8NI35): below the threshold; pKd (MPDZ_12, O75970): below the threshold; pKd (GRIP2_3, Q9C0E4): below the threshold; pKd (APBA2_2, Q99767): below the threshold; pKd (CASK, O14936): below the threshold; pKd (MAGI2_6, Q86UL8): 3.77; pKd (GRIP2_4, Q9C0E4): below the threshold
LRSPRTPSEV [OR10G3, Q8NGC4]	4.18	below the threshold	below the threshold	below the threshold	below the threshold	below the threshold	below the threshold	below the threshold	4.4	below the threshold	below the threshold	below the threshold	below the threshold	4.26	below the threshold	3.65	below the threshold	below the threshold	below the threshold	3.49	pKd (DLG3_3, Q92796): below the threshold; pKd (Inadl_1, Q8NI35): below the threshold; pKd (MPDZ_12, O75970): 3.5; pKd (GRIP2_3, Q9C0E4): below the threshold; pKd (APBA2_2, Q99767): below the threshold; pKd (CASK, O14936): 3.61; pKd (MAGI2_6, Q86UL8): below the threshold; pKd (GRIP2_4, Q9C0E4): below the threshold
